Where a chain is given by its changes, count along the chain named. Blank lines part the entries; values can stand above or below the molecule they belong to.
How the values were obtained:
[1] = molecular target: human TROP2 protein on the surface of FaDu cells (human) (UniProt P09758); experiment: flow cytometry on FaDu cells, fluorescent secondary antibody
[2] = molecular target: Recombinant human TROP2 protein (Sino Biological) (human) (UniProt P09758); experiment: BLI (Octet Red96e), antibody on AHC sensor, antigen 100 nM
[3] = molecular target: Rhesus Monkey Trop2 protein (Sino Biological 90893-C08H) (rhesus monkey); experiment: as above
[4] = tested on: Human gastric cancer cell line NCI-N87; experiment: Mouse xenograft tumor model NCI-N87; assay type: in vivo, immunodeficient mice CB17-SCID; details: intraperitoneal injection
Experimental: • 1. Mice: immunodeficient mice CB17-SCID (Vital River) aged 6-8 weeks were placed in an SPF experimental environment for 3-5 days before the experiment to better adapt to the current living environment. In all experiments, the long and short diameters of the tumor were measured twice a week using a vernier caliper, and the tumor volume (mm^3) was calculated from the measured data. The calculation formula is as follows: Tumor volume(mm^3) = 0.5 × long diameter(mm) × short diameter(mm) × short diameter(mm) [formula] • 2. Human gastric cancer cell line NCI-N87 (ATCC) cells were resuspended in 1× PBS (Gibco, 10010049) at an appropriate concentration, and the tumor cells were implanted subcutaneously in the right abdomen of the mice at an inoculation amount of 2×10^6 /mouse. When the tumor volume reached 150-200 mm^3, the mice were divided into groups such that the average initial administration volume of each group was substantially the same. After grouping, different doses of antibody-drug conjugates hRs7-DXd, hRS7-MB3 and hTINA1-DXd, or control-drug conjugates IgG-MB3, IgG-DXd and IgG control were administered by intraperitoneal injection. […] Compared with hRS7-DXd, hRS7-MB3 has a stronger tumor inhibitory effect. […] Non-small cell lung cancer cell line HCC827 cells purchased from ATCC were inoculated subcutaneously into mice (2×10^6 /mouse), and when the tumor volume reached 120-150 mm^3, the mice were grouped and administered. Different doses of the antibody-drug conjugate and the control drug were intraperitoneally injected into the mice, and the administration was performed only once throughout the experiment. The growth status of the mice was observed, and the changes in tumor volume of the mice were measured. […] The lung squamous cell carcinoma cell line LK-2 (CBP60105) purchased from Nanjing Cobioer Biosciences was implanted subcutaneously in the right abdomen of the mice at an inoculation amount of 3 × 10 ^6 cells/mouse. When the tumor volume reached 150-200 mm^3, the mice were divided into groups such that the average initial administration volume of each group was substantially the same. The mice were administered only once throughout the experiment and injected intraperitoneally at a dose of 10 mg/kg. IgG-MB3 or IgG-DXd was used as a negative control. It was observed that two TROP2-targeted ADCs were also able to delay tumor growth in a tumor model with relatively low TROP2 expression (FIG. 7). […] The pancreatic cancer cell line BxPC3 cells purchased from ATCC were implanted subcutaneously in the right abdomen of the mice at an inoculation amount of 3 × 10 ^6 cells/mouse. […]

[5] = tested on: human pancreatic cancer cell line BxPC-3; experiment: In vitro cytotoxicity test, BxPC3 cells, 6 days; assay type: cell-based; details: BxPC3, 6 days of culture
Experimental: (§1) 10% FBS (SH30406.05, HYCLONE) was added to RPMI 1640 (22400-071, Gibco), and the mixture was mixed well to prepare a BxPC3 cell (ATCC) growth medium. BxPC3 or FaDu cells were adjusted to a concentration of 50000 cells/mL with a growth medium, seeded into a 96-well white-bottom plate (167008, NUNC) at 50 µL per well (2500 cells/well), and incubated overnight in an incubator at 37 °C. The antibody was diluted with growth medium and serially diluted 5-fold from 200 nM (2×) to obtain 9 gradients, with the final concentration being […]. The diluted antibody-drug conjugate or control was added at 50 µL/well, and the total volume was 100 µL. […] The cell pellet was fully lysed by shaking on a plate shaker for 5 min, and the luminescence signal was stabilized by standing at room temperature for 10 min. The culture plate was tested on a microplate reader (spectra MAX i3x, Molecular Divices), the […] were taken, and the cell viability was calculated. […]
(§2) The cell proliferation inhibition rate after 6 days of culture was calculated using the following formula.
(§3) Cell proliferation inhibition rate (%) = […], where a: the average value of experimental sample-added wells after 6 days of culture; b: the average value of control medium-added wells after 6 days of culture. The data were fitted by GraphPad Prism and the IC50 of the drug was calculated (Table 4).

[6] = mouse, in vivo, 10 mg/kg; cited from earlier work
[7] = tested on: drug-resistant triple-negative breast cancer (TNBC); details: patients with drug-resistant triple-negative breast cancer (TNBC); cited from earlier work
[8] = Days 1 and 8/every 21 days for 4 cycles; EMEA/H/C/005182/0000; cited from earlier work
[9] = tested on: human hypopharyngeal carcinoma squamous cell line FaDu; experiment: In vitro cytotoxicity test, FaDu cells, 6 days; assay type: cell-based; details: 6 days of culture
Experimental: as §1, §2, §3

[10] = molecular target: T1, human TROP2 protein on the surface of FaDu cells (human, UniProt P09758 27-323); experiment: flow cytometry on FaDu cells, fluorescent secondary antibody
T1 construct: whole, on cells; also called TROP2 protein on cell surface; human TROP2 protein at the cellular level
T1 sequence (looked up): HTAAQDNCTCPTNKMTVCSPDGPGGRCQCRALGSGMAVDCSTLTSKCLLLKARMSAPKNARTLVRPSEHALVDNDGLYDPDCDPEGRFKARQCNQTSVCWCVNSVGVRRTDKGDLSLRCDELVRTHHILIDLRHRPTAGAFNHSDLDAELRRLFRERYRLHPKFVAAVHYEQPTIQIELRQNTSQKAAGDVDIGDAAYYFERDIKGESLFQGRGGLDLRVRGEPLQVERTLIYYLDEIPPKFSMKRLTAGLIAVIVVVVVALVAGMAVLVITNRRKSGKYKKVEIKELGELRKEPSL

[11] = molecular target: T2, Rhesus Monkey Trop2 protein (Sino Biological 90893-C08H) (rhesus monkey, UniProt A0A5F8AGB8 27-274); experiment: BLI (Octet Red96e), antibody on AHC sensor, antigen 100 nM
T2 construct: Bought recombinant protein
T2 sequence: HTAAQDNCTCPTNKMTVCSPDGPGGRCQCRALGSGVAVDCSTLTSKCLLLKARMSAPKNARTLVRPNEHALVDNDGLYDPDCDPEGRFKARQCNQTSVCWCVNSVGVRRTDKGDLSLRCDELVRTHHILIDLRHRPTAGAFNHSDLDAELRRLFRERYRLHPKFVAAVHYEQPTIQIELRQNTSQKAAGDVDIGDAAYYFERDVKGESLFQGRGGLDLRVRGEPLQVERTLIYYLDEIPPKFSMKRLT

[12] = molecular target: T3, Recombinant human TROP2 protein (Sino Biological) (human, UniProt P09758 27-274); experiment: as above
T3 construct: Bought recombinant protein; The two paragraphs give different catalogue numbers; also called TACSTD2
T3 sequence (looked up): T2 sequence with V36M, N67S, V204I

[13] = molecular target: T4, mouse TROP2 (Sino Biological 50922-M08H) (mouse, UniProt Q8BGV3 25-270); experiment: BLI (Octet Red96e), antibody on AHC sensor, antigen in solution
T4 construct: Bought recombinant protein
T4 sequence (looked up): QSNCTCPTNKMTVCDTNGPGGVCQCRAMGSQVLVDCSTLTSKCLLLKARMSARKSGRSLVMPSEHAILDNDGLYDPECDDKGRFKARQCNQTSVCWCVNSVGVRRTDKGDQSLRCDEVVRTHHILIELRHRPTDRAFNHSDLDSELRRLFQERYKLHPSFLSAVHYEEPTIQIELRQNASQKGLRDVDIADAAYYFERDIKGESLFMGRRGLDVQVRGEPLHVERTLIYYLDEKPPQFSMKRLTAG

[14] = molecular target: T5, rat TROP2 (Sino Biological 86246-R08H) (rat, UniProt A0ABK0L8S5 21-268); experiment: as above
T5 construct: Bought recombinant protein
T5 sequence: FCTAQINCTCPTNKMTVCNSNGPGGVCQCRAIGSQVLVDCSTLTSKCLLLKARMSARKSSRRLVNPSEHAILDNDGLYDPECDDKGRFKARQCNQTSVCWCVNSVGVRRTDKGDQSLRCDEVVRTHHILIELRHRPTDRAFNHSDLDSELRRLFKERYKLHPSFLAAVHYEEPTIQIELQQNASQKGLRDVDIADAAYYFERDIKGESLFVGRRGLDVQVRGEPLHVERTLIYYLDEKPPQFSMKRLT

Molecule: hRS7-DXd: antibody hRS7 conjugated with Linker-DXd, average DAR 4.4 [reference compound]
tumor inhibitory effect ([4]; high-dose group (3 mg/kg)): comparable tumor inhibitory effects | tumor inhibitory effect ([4]; low dose (1 mg/kg), compared with IgG-MB3 and IgG-DXd): a certain degree of tumor inhibitory effect

Molecule: Trodelvy [reference compound]
IC50 [5]: 0.42 nM | half-life in mice [6]: 11 h | objective response rate (ORR) [7]: 33% | HNSTD [8]: 50 mg/kg | IC50 [9]: 0.53 nM

Other lines, results leading:

EC50 [1]: 1.7 nM | Kd [2]: 22.8 nM | Response [2]: 0.284 | koff [2]: 0.0035 s⁻¹ | kon [2]: 154000 M⁻¹ s⁻¹ | Kd [3]: 32.5 nM | Response [3]: 0.21 | koff [3]: 0.00356 s⁻¹ | kon [3]: 110000 M⁻¹ s⁻¹
Molecule: hTINA1 (the antibody used in Ds-1062), positive control antibody

EC50 [10]: 1.58 nM | Kd [11]: 7.75 nM | koff [11]: 0.000823 s⁻¹ | kon [11]: 106000 M⁻¹ s⁻¹ | Kd [12]: 4.52 nM | koff [12]: 0.00056 s⁻¹ | kon [12]: 124000 M⁻¹ s⁻¹ | binding result [13]: no binding (tested: 100 nM) | binding result [14]: no binding (tested: 100 nM)
B1: hRS7 antibody (hRS7-IgG1), humanized antibody targeting TROP2 in IgG1 form (antibody, V domains shown)
VH: QVQLQQSGSELKKPGASVKVSCKASGYTFTNYGMNWVKQAPGQGLKWMGWINTYTGEPTYTDDFKGRFAFSLDTSVSTAYLQISSLKADDTAVYFCARGGFGSSYWYFDVWGQGSLVTVSS
VL: DIQLTQSPSSLSASVGDRVSITCKASQDVSIAVAWYQQKPGKAPKLLIYSASYRYTGVPDRFSGSGSGTDFTLTISSLQPEDFAVYYCQQHYITPLTFGAGTKVEIKR
